From patent publication US20230134571A1 (INTERNATIONAL AIDS VACCINE INITIATIVE, published 2023)

Assays:
Experiment in all cases: cell-based or functional assay
HIV Env, isolate 1245045 = HIV Env, isolate 1245045 (HIV)
[1] = target: HIV Env, isolate CT966_E1-7 (HIV)
[2] = target: HIV Env, isolate 6022.v7.c24 (HIV)
[3] = target: HIV Env, isolate 3312_D6.2 (HIV)
[4] = target: HIV Env, isolate CT810_G4-7 (HIV)
[5] = target: HIV Env, isolate 0041.v3.c18 (HIV)
[6] = target: HIV Env, isolate 21283649 (HIV)
[7] = target: HIV Env, isolate CAP244.2.00.D3 (HIV)
[8] = target: HIV Env, isolate Ce703010054_2A2 (HIV)
[9] = target: HIV Env, isolate SO607_B6.9 (HIV)
[10] = target: HIV Env, isolate TRP290.2.00_23_6 (HIV)
[11] = target: HIV Env, isolate CeCAP200_B8a (HIV)
[12] = target: HIV Env, isolate ZM249M.PL1 (HIV)
HIV Env, isolate Du422.1 = HIV Env, isolate Du422.1 (HIV)
[13] = target: HIV Env, isolate 20927783 (HIV)
[14] = target: HIV Env, isolate 556_F2_3_25 (HIV)
[15] = target: HIV Env, isolate 704010042 (HIV)
[16] = target: HIV Env, isolate CAP291.2.00_H2.15 (HIV)
[17] = target: HIV Env, isolate CA392_H2_6 (HIV)
[18] = target: HIV Env, isolate TRP307.2.00_24_1 (HIV)
[19] = target: HIV Env, isolate 722_G4_16 (HIV)
[20] = target: HIV Env, isolate CAP330.2.00_F2.41 (HIV)
[21] = target: HIV Env, isolate CAP225.1.06_A2_18 (HIV)
[22] = target: HIV Env, isolate ZM215F.PB8 (HIV)
[23] = target: HIV Env, isolate ZM135M.PL10a (HIV)
[24] = target: HIV Env, isolate 6631.v3.c10 (HIV)
[25] = target: HIV Env, isolate 20965238 (HIV)
[26] = target: HIV Env, isolate Ko426_T78_10 (HIV)
MuLV (Neg. Control) = target: MuLV (Neg. Control)
[27] = target: HIV Env, isolate B005018-8_F6.3 (HIV)
[28] = target: HIV Env, isolate 234-F1-16-57 (HIV)
[29] = target: HIV Env, isolate 21203310_G7_C3 (HIV)
[30] = target: HIV Env, isolate CAP174.1.06_F3_1B (HIV)
[31] = target: HIV Env, isolate 705010185 (HIV)
[32] = target: HIV Env, isolate 569-F1_37_10 (HIV)
[33] = target: HIV Env, isolate CAP266.2.00_E9_h6 (HIV)
[34] = target: HIV Env, isolate 20417927.07 (HIV)

B1: ePGDM9 (antibody, V domains shown)
VH: QAQLVQSGPEVRKPGTSVKVSCKNPGNTLTTYDLHWVRQVPGQGLQWMGWISHEGDKKVIVERFKAKVTIDWDRSTNTAYLQLSGLTSEDTAVYYCAKGSKHRLRDYALYDEDGALNWAVDVDYLANLEFWGQGTAVTVSS
VL: DIVLTQSPLSLSVTPGESASISCKSSQSLIHGDRNNYLAWYVQKPGRSPQLLIDLASERASGVPDRFSGSGSRKDFTLKISRVETEDVGTYYCMQGRESPWTFGQGTKVDIK
HIV Env, isolate 1245045
  IC50: 0.002 µg/mL
  IC80: 0.006 µg/mL
[1]
  IC50: < 0.0006 µg/mL
  IC80: 0.003 µg/mL
[2]
  IC50: > 50 µg/mL
  IC80: > 50 µg/mL
[3]
  IC50: 0.004 µg/mL
  IC80: 0.011 µg/mL
[4]
  IC50: 0.087 µg/mL
  IC80: 5.53 µg/mL
[5]
  IC50: < 0.0006 µg/mL
  IC80: 0.001 µg/mL
[6]
  IC50: 1.55 µg/mL
  IC80: > 50 µg/mL
[7]
  IC50: 2.87 µg/mL
  IC80: 19.9 µg/mL
[8]
  IC50: 0.005 µg/mL
  IC80: 0.027 µg/mL
[9]
  IC50: 29.5 µg/mL
  IC80: > 50 µg/mL
[10]
  IC50: 0.012 µg/mL
  IC80: 0.06 µg/mL
[11]
  IC50: 0.003 µg/mL
  IC80: 0.022 µg/mL
[12]
  IC50: 0.004 µg/mL
  IC80: 0.05 µg/mL
HIV Env, isolate Du422.1
  IC50: > 50 µg/mL
  IC80: > 50 µg/mL
[13]
  IC50: 0.005 µg/mL
  IC80: 0.017 µg/mL
[14]
  IC50: > 50 µg/mL
  IC80: > 50 µg/mL
[15]
  IC50: < 0.0006 µg/mL
  IC80: < 0.0006 µg/mL
[16]
  IC50: 0.342 µg/mL
  IC80: 1.1 µg/mL
[17]
  IC50: 0.032 µg/mL
  IC80: 0.129 µg/mL
[18]
  IC50: > 50 µg/mL
  IC80: > 50 µg/mL
[19]
  IC50: 0.198 µg/mL
  IC80: 0.585 µg/mL
[20]
  IC50: < 0.0006 µg/mL
  IC80: 0.004 µg/mL
[21]
  IC50: 0.025 µg/mL
  IC80: 0.167 µg/mL
[22]
  IC50: < 0.0006 µg/mL
  IC80: 0.007 µg/mL
[23]
  IC50: > 50 µg/mL
  IC80: > 50 µg/mL
[24]
  IC50: > 50 µg/mL
  IC80: > 50 µg/mL
[25]
  IC50: > 50 µg/mL
  IC80: > 50 µg/mL
[26]
  IC50: > 50 µg/mL
  IC80: > 50 µg/mL
MuLV (Neg. Control)
  IC50: > 50 µg/mL
  IC80: > 50 µg/mL
[27]
  IC50: < 0.0006 µg/mL
  IC80: 0.003 µg/mL
[28]
  IC50: < 0.0006 µg/mL
  IC80: 0.002 µg/mL
[29]
  IC50: 9.94 µg/mL
  IC80: > 50 µg/mL
[30]
  IC50: 12.6 µg/mL
  IC80: > 50 µg/mL
[31]
  IC50: 0.706 µg/mL
  IC80: 2.15 µg/mL
[32]
  IC50: > 50 µg/mL
  IC80: > 50 µg/mL
[33]
  IC50: 0.008 µg/mL
  IC80: 0.037 µg/mL
[34]
  IC50: 0.03 µg/mL
  IC80: 0.679 µg/mL
